B1: PilT^Pa two-hybrid fusion from pKT25::PilT^Pa (wild type) [Pseudomonas aeruginosa] / PilT^Pa two-hybrid fusion from pUT18C::pilT [Pseudomonas aeruginosa] (parent)
chain 1: MDITELLAFSAKQGASDLHLSAGLPPMIRVDGDVRRINLPPLEHKQVHALIYDIMNDKQRKDFEEFLETDFSFEVPGVARFRVNAFNQNRGAGAVFRTIPSKVLTMEELGMGEVFKRVSDVPRGLVLVTGPTGSGKSTTLAAMLDYLNNTKYHHILTIEDPIEFVHESKKCLVNQREVHRDTLGFSEALRSALREDPDIILVGEMRDLETIRLALTAAETGHLVFGTLHTTSAAKTIDRVVDVFPAEEKAMVRSMLSESLQSVISQTLIKKIGGGRVAAHEIMIGTPAIRNLIREDKVAQMYSAIQTGGSLGMQTLDMCLKGLVAKGLISRENAREKAKIPENF
chain 2: B1 chain 1
B2: PilT^Pa two-hybrid fusion from pKT25::PilT^Pa (wild type) [Pseudomonas aeruginosa] / PilC^Pa two-hybrid fusion from pUT18C::PilC^Pa [Pseudomonas aeruginosa] (parent)
chain 1: B1 chain 1
chain 2: MLVKAHLRKQGINPLKVRKKGISLLGAGKKVKPMDIALFTRQMATMMGAGVPLLQSFDIIGEGFDNPNMRKLVDEIKQEVSSGNSLANSLRKKPQYFDELYCNLVDAGEQSGALENLLDRVATYKEKTESLKAKIRKAMTYPIAVIIVALIVSAILLIKVVPQFQSVFQGFGAELPAFTQMVVNLSEFLQEWWLAVIVGVGAIGFTFKELHKRSKKFRDTLDRTILKLPIFGGIVYKSAVARYARTLSTTFAAGVPLVDALDSVSGATGNIVFKNAVSKIKQDVSTGMQLNFSMRTTSVFPNMAIQMTAIGEESGSLDEMLSKVASYYEEEVDNAVDNLTTLMEPMIMAVLGVLVGGLIVAMYLPIFQLGNVVG

Variants of: B1
Assay: bacterial two-hybrid (BACTH), β-galactosidase activity
Details: with PilT^Pa two-hybrid fusion from pUT18C::pilT [Pseudomonas aeruginosa]; E. coli BTH101; n = 3; parent: 9.3e+03; read off a plot

In order of rising response:
1. chain 1 MDITELLAFSAKQGASDLHLSAGLPPMIRVKGDVRRINLPPLEHKQVHALIYDIMNDKQRKDFEEFLETDFSFEVPGVARFRVNAFNQNRGAGAVFRTIPSKVLTMEELGMGEVFKRVSDVPRGLVLVTGPTGSGKSTTLAAMLDYLNNTKYHHILTIEDPIEFVHESKKCLVNQREVHRDTLGFSEALRSALREDPDIILVGEMRDLETIRLALTAAETGHLVFGTLHTTSAAKTIDRVVDVFPAEEKAMVRSMLSESLQSVISQTLIKKIGGGRVAAHEIMIGTPAIRNLIREDKVAQMYSAIQTGGSLGMQTLDMCLKGLVAKGLISRENAREKAKIPENF [chain 1 D31K]  7000 Miller units
2. chain 1 MDITELLAFSAKQGASDLHLSAGLPPMIRVDGDVRRINLPPLEHKQVHALIYDIMNDKQRKDFEEFLETDFSFEVPGVARFRVNAFNQNRGAGAVFRTIPSKVLTMEELGMGEVFKRVSDVPDGLVLVTGPTGSGKSTTLAAMLDYLNNTKYHHILTIEDPIEFVHESKKCLVNQREVHRDTLGFSEALRSALREDPDIILVGEMRDLETIRLALTAAETGHLVFGTLHTTSAAKTIDRVVDVFPAEEKAMVRSMLSESLQSVISQTLIKKIGGGRVAAHEIMIGTPAIRNLIREDKVAQMYSAIQTGGSLGMQTLDMCLKGLVAKGLISRENAREKAKIPENF [chain 1 R123D]  8000 Miller units
3. chain 1 MDITELLAFSAKQGASDLHLSAGLPPMIRVDGDVRRINLPPLEHKQVHALIYDIMNDKQRKDFEEFLETDFSFEVPGVARFRVNAFNQNRGAGAVFRTIPSKVLTMEELGMGEVFKRVSDVPRGLVLVTGPTGSGKSTTLAAMLDYLNNTKYHHILTIEDPIEFVHESKKCLVNQREVHRDTLGFSEALRSALREDPDIILVGEMRDLETIRLALTAAETGHLVFGTLHTTSAAKTIDRVVKVFPAEEKAMVRSMLSESLQSVISQTLIKKIGGGRVAAHEIMIGTPAIRNLIREDKVAQMYSAIQTGGSLGMQTLDMCLKGLVAKGLISRENAREKAKIPENF [chain 1 D242K]  8000 Miller units
4. chain 1 MDITELLAFSAKQGASDLHLSAGLPPMIRVDGDVRRINLPPLEHKQVHALIYDIMNDKQRKDFEEFLETDFSFEVPGVARFRVNAFNQNRGAGAVFRTIPSKVLTMEELGMGEVFKRVSDVPRGLVLVTGPTGSGKSTTLAAMLDYLNNTKYHHILTIEDPIEFVHESKKCLVNQREVHRDTLGFSEALRSALREDPDIILVGAMRDLETIRLALTAAETGHLVFGTLHTTSAAKTIDRVVDVFPAEEKAMVRSMLSESLQSVISQTLIKKIGGGRVAAHEIMIGTPAIRNLIREDKVAQMYSAIQTGGSLGMQTLDMCLKGLVAKGLISRENAREKAKIPENF [chain 1 E204A]  8000 Miller units
5. chain 1 MDITELLAFSAKQGASDLHLSAGLPPMIRVDGDVRRINLPPLEHKQVHALIYDIMNDKQRKDFEEFLETDFSFEVPGVARFRVNAFNQNRGAGAVFRTIPSKVLTMEELGMGEVFKRVSDVPRGLVLVTGPTGSGKSTTLAAMLDYLNNTKYHHILTIEDPIEFVHESKKCLVNQREVHRDTLGFSEALRSALREDPDIILVGEMRDLETIRLALTAAKTGHLVFGTLHTTSAAKTIDRVVDVFPAEEKAMVRSMLSESLQSVISQTLIKKIGGGRVAAHEIMIGTPAIRNLIREDKVAQMYSAIQTGGSLGMQTLDMCLKGLVAKGLISRENAREKAKIPENF [chain 1 E219K]  8600 Miller units
6. chain 1 MDITELLAFSAKQGASDLHLSAGLPPMIRVDGDVRRINLPPLEHKQVHALIYDIMNDKQRKDFEEFLETDFSFEVPGVARFRVNAFNQNRGAGAVFRTIPSKVLTMEELGMGEVFKRVSDVPRGLVLVTGPTGSGKSTTLAAMLDYLNNTKYHHILTIEDPIEFVHESKKCLVNQREVHRDTLGFSEALRSALREDPDIILVGEMRDLETIRLALTAAETGHLVFGTLHTTSAAKTIDRVVDVFPAEEKAMVRSMLSESLQSVISQTLIKKIGGGRVAAHEIMIGTPAIRNLIEEDKVAQMYSAIQTGGSLGMQTLDMCLKGLVAKGLISRENAREKAKIPENF [chain 1 R294E]  8600 Miller units
7. chain 1 MDITELLAFSAKQGASDLHLSAGLPPMIRVDGDVRRINLPPLEHKQVHALIYDIMNDKQRKDFEEFLETDFSFEVPGVARFRVNAFNQNRGAGAVFRTIPSKVLTMEELGMGEVFKRVSDVPRGLVLVTGPTGSGKSTTLAAMLDYLNNTKYHHILTIEDPIEFVHESKKCLVNQREVHRDTLGFSEALRSALREDPDIILVGEMRDLETIRLALTAAETGHLVFGTLHTTSAAKTIDRVVDVFPAEEKAMVRSMLSASLQSVISQTLIKKIGGGRVAAHEIMIGTPAIRNLIREDKVAQMYSAIQTGGSLGMQTLDMCLKGLVAKGLISRENAREKAKIPENF [chain 1 E258A]  9300 Miller units
8. chain 1 MDITELLAFSAKQGASDLHLSAGLPPMIRVDGDVRRINLPPLEHKQVHALIYDIMNDKQRKDFEEFLETDFSFEVPGVARFRVNAFNQNRGAGAVFRTIPSKVLTMEELGMGEVFKRVSDVPRGLVLVTGPTGSGKSTTLAAMLDYLNNTKYHHILTIEDPIEFVHESKKCLVNQREVHRDTLGFSEALRSALREDPDIILVGEMRDLETIRLALRAAETGHLVFGTLHTTSAAKTIDRVVDVFPAEEKAMVRSMLSESLQSVISQTLIKKIGGGRVAAHEIMIGTPAIRNLIREDKVAQMYSAIQTGGSLGMQTLDMCLKGLVAKGLISRENAREKAKIPENF [chain 1 T216R]  10000 Miller units
9. chain 1 MDITELLAFSAKQGASDLHLSAGLPPMIRVDGDVRRINLPPLEHKQVHALIYDIMNDAQRKDFEEFLETDFSFEVPGVARFRVNAFNQNRGAGAVFRTIPSKVLTMEELGMGEVFKRVSDVPRGLVLVTGPTGSGKSTTLAAMLDYLNNTKYHHILTIEDPIEFVHESKKCLVNQREVHRDTLGFSEALRSALREDPDIILVGEMRDLETIRLALTAAETGHLVFGTLHTTSAAKTIDRVVDVFPAEEKAMVRSMLSESLQSVISQTLIKKIGGGRVAAHEIMIGTPAIRNLIREDKVAQMYSAIQTGGSLGMQTLDMCLKGLVAKGLISRENAREKAKIPENF [chain 1 K58A]  10000 Miller units
10. chain 1 MDITELLAFSAKQGASDLHLSAGLPPMIRVDGDVRRINLPPLEHKQVHALIYDIMNDQQRKDFEEFLETDFSFEVPGVARFRVNAFNQNRGAGAVFRTIPSKVLTMEELGMGEVFKRVSDVPRGLVLVTGPTGSGKSTTLAAMLDYLNNTKYHHILTIEDPIEFVHESKKCLVNQREVHRDTLGFSEALRSALREDPDIILVGEMRDLETIRLALTAAETGHLVFGTLHTTSAAKTIDRVVDVFPAEEKAMVRSMLSESLQSVISQTLIKKIGGGRVAAHEIMIGTPAIRNLIREDKVAQMYSAIQTGGSLGMQTLDMCLKGLVAKGLISRENAREKAKIPENF [chain 1 K58Q]  10000 Miller units
11. chain 1 MDITELLAFSAKQGASDLHLSAGLPPMIRVDGDVRRINLPPLEHKQVHALIYDIMNDKQRKDFEEFLETDFSFEVPGVARFRVNAFNQNRGAGAVFRTIPSKVLTMEELGMGEVFKRVSDVPRGLVLVTGPTGSGKSTTLAAMLDYLNNTKYHHILTIEDPIEFVHESKKCLVNQREVHRDTLGFSEALRSALREDPDIILVGEMRDLETIRLALTAAETGHLVFGTLHTTSAAKTIDAVVDVFPAEEKAMVRSMLSESLQSVISQTLIKKIGGGRVAAHEIMIGTPAIRNLIREDKVAQMYSAIQTGGSLGMQTLDMCLKGLVAKGLISRENAREKAKIPENF [chain 1 R239A]  11000 Miller units
12. chain 1 MDITELLAFSAKQGASDLHLSAGLPPMIRVDGDVRRINLPPLEHKQVHALIYDIMNDKQRKDFEEFLETDFSFEVPGVARFRVNAFNQNRGAGAVFRTIPSKVLTMEELGMGEVFKRVSDVPRGLVLVTGPTGSGKSTTLAAMLDYLNNTKYHHILTIEDPIEFVHESKKCLVNQREVHRDTLGFSEALRSALREDPDIILVGEMRDLETIRLALTAAETGHLVFGTLATTSAAKTIDRVVDVFPAEEKAMVRSMLSESLQSVISQTLIKKIGGGRVAAHEIMIGTPAIRNLIREDKVAQMYSAIQTGGSLGMQTLDMCLKGLVAKGLISRENAREKAKIPENF [chain 1 H229A]  11000 Miller units
13. chain 1 MDITELLAFSAKQGASDLHLSAGLPPMIRVDGDVRRINLPPLEHKQVHALIYDIMNDRQRKDFEEFLETDFSFEVPGVARFRVNAFNQNRGAGAVFRTIPSKVLTMEELGMGEVFKRVSDVPRGLVLVTGPTGSGKSTTLAAMLDYLNNTKYHHILTIEDPIEFVHESKKCLVNQREVHRDTLGFSEALRSALREDPDIILVGEMRDLETIRLALTAAETGHLVFGTLHTTSAAKTIDRVVDVFPAEEKAMVRSMLSESLQSVISQTLIKKIGGGRVAAHEIMIGTPAIRNLIREDKVAQMYSAIQTGGSLGMQTLDMCLKGLVAKGLISRENAREKAKIPENF [chain 1 K58R]  11000 Miller units

Variants of: B2
Assay: as above
Details: with PilC^Pa two-hybrid fusion from pUT18C::PilC^Pa [Pseudomonas aeruginosa]; E. coli BTH101; n = 3; parent: 650; read off a plot

In order of rising response:
1. chain 1 MDITELLAFSAKQGASDLHLSAGLPPMIRVDGDVRRINLPPLEHKQVHALIYDIMNDKQRKDFEEFLETDFSFEVPGVARFRVNAFNQNRGAGAVFRTIPSKVLTMEELGMGEVFKRVSDVPRGLVLVTGPTGSGKSTTLAAMLDYLNNTKYHHILTIEDPIEFVHESKKCLVNQREVHRDTLGFSEALRSALREDPDIILVGAMRDLETIRLALTAAETGHLVFGTLHTTSAAKTIDRVVDVFPAEEKAMVRSMLSESLQSVISQTLIKKIGGGRVAAHEIMIGTPAIRNLIREDKVAQMYSAIQTGGSLGMQTLDMCLKGLVAKGLISRENAREKAKIPENF [chain 1 E204A]  460 Miller units
2. chain 1 MDITELLAFSAKQGASDLHLSAGLPPMIRVDGDVRRINLPPLEHKQVHALIYDIMNDKQRKDFEEFLETDFSFEVPGVARFRVNAFNQNRGAGAVFRTIPSKVLTMEELGMGEVFKRVSDVPRGLVLVTGPTGSGKSTTLAAMLDYLNNTKYHHILTIEDPIEFVHESKKCLVNQREVHRDTLGFSEALRSALREDPDIILVGEMRDLETIRLALTAAETGHLVFGTLATTSAAKTIDRVVDVFPAEEKAMVRSMLSESLQSVISQTLIKKIGGGRVAAHEIMIGTPAIRNLIREDKVAQMYSAIQTGGSLGMQTLDMCLKGLVAKGLISRENAREKAKIPENF [chain 1 H229A]  650 Miller units

From publication PMC6858323, “Multiple conformations facilitate PilT function in the type IV pilus” (Nature Communications, 2019)
